Reference: article doi:10.1101/2020.03.26.009662

Molecular target: ForT, recombinant wild type
Assay: SEC-MALS

Substance: ForT, recombinant wild type (enzyme)
- stoichiometry N: 2
